Data as given in US20070213269.

Assays:
PBS3 (synthetic) = experiment: EMSA
KRAB-PBS1a (synthetic) = experiment: cell_activity; conditions: with Tat
KRAB-PBS1 (synthetic) = experiment: cell_activity; conditions: with Tat
KRAB-PBS2 (synthetic) = experiment: cell_activity; conditions: for activity (fold repression): with Tat
PBS1a (synthetic) = experiment: EMSA
PBS2 (synthetic) = experiment: EMSA
PBS1 (synthetic) = experiment: EMSA

## TGGCGCCCGAACAGGGAC [HIV-1 PBS hairpin, PBS3 site]
PBS3 (synthetic)
  Kd: 0.93 nM

## chromosomally integrated HIV-1 LTR reporter (TZM-bl)
KRAB-PBS1a (synthetic); TZM-bl luciferase
  activity (fold repression): 15
KRAB-PBS1 (synthetic); TZM-bl luciferase
  activity (fold repression): 7
KRAB-PBS2 (synthetic); TZM-bl luciferase
  activity (fold repression): 20

## GTGTGGAAAATCTCTAGCAGTGGCG [HIV-1 PBS hairpin, PBS1a site]
PBS1a (synthetic)
  Kd: 1.25 nM

## HIV-1 with wild-type B-subtype LTR
KRAB-PBS2 (synthetic); transduced PBMCs, NL4-3 challenge
  activity (% inhibition of virus production): > 90

## GCAGTGGCGCCCGAACAG [HIV-1 PBS hairpin, PBS2 site]
PBS2 (synthetic)
  Kd: 2.4 nM

## AAATCTCTAGCAGTGGCG [HIV-1 PBS hairpin, PBS1 site]
PBS1 (synthetic)
  Kd: 0.79 nM

## HIV-1 LTR-luciferase reporter (LTR658-luc)
KRAB-PBS1a (synthetic); HeLa
  activity (fold repression): 9.5
KRAB-PBS1 (synthetic); HeLa
  activity (fold repression): 20
KRAB-PBS2 (synthetic); HeLa
  activity (fold repression): 28
